Target: T1, tyrosine phosphorylated β-catenin (Homo sapiens, UniProt P35222)
T1 construct: expressed in transfected cells; host or cells: human 293 embryonic kidney cells, transient; CMV-promoter vector; immunoprecipitated with anti-β-catenin antibody
T1 sequence (P35222 1-781): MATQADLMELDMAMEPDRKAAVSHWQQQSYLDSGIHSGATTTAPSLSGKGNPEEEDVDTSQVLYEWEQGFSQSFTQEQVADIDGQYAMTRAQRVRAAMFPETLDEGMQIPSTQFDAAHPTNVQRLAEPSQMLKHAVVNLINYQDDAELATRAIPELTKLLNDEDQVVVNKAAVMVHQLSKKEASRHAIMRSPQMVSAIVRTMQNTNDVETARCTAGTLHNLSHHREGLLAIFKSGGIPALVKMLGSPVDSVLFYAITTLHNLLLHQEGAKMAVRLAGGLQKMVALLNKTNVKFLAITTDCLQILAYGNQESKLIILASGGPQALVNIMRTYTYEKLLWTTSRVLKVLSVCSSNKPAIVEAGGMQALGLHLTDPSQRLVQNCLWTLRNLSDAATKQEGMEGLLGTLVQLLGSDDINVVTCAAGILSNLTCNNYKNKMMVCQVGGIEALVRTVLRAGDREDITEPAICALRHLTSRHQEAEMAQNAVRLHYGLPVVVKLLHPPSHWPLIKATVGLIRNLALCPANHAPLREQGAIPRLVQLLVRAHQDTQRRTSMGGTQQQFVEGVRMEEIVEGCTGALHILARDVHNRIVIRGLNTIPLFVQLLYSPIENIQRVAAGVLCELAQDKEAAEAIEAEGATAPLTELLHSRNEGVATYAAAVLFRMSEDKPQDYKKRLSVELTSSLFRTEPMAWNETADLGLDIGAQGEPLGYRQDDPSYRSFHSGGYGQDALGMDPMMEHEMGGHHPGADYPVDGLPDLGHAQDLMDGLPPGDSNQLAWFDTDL
Assay: In vitro dephosphorylation assay
Format: biochemical
Conditions: 200 ng GST fusion protein, 25° C.; within the first five minutes; anti-phosphotyrosine Western blot
Procedure: After 24 h of serum starvation, the cells were stimulated with pervanadate before lysis. β-catenin was subsequently immunoprecipitated with an anti-β-catenin antibody, and precipitates were incubated for the indicated time intervals with GST-PTP LAR cytoplasmic fusion protein (left), GST-PTP LAR PTP D1 C1522S-mutant (middle) or GST-PTP LAR PTP D2 C1813S-mutant (right). Reactions were terminated after the indicated periods of time, and proteins were separated by SDS-PAGE. Tyrosine phosphorylation levels of […] were analyzed by Western blotting with an anti-phosphotyrosine antibody (top). […] Arrows indicate the proteins of interest.
In Vitro Dephosphorylation Assay—β-catenin was transiently overexpressed in human 293 embryonic kidney cells. Cells were serum-starved, treated with pervanadate ([…]/0.1 mM Na-orthovanadate) for 10 minutes and lysed. Immunoprecipitations were performed as described above except that HNTG without pyrophosphate, ammonium-molybdate, and Na-orthovanadate was used. PTP activity towards tyrosine phosphorylated β-catenin was assayed in 200 μL reactions at 25° C. containing 25 mM HEPES, pH 7.5, 5 mM EDTA, 10 mM DTT, and 1 mg/mL BSA with 200 ng of GST-hPTP LAR cytoplasmic, GST-hPTP LAR D1 C1522S, or GST-hPTP LAR D2 C1813S added. Reactions were stopped by washing with HNTG and subsequently separated by SDS-PAGE. The tyrosine phosphorylation status was analyzed by Western blotting using anti-phosphotyrosine antibody.
The association of β-catenin and plakoglobin with PTP LAR prompted the investigation of whether these proteins could represent actual substrates for PTP LAR. […] After different time intervals, the reactions were terminated and analyzed with an anti-phosphotyrosine specific antibody.

B1: GST-PTP LAR cytoplasmic: GST fusion protein comprising the entire cytoplasmic domain (amino acids 1259-1881) of human PTP LAR (protein)
chain: PEMLWVTGPVLAVILIILIVIAILLFKRKRTHSPSSKDEQSIGLKDSLLAHSSDPVEMRRLNYQTPGMRDHPPIPITDLADNIERLKANDGLKFSQEYESIDPGQQFTWENSNLEVNKPKNRYANVIAYDHSRVILTSIDGVPGSDYINANYIDGYRKQNAYIATQGPLPETMGDFWRMVWEQRTATVVMMTRLEEKSRVKCDQYWPARGTETCGLIQVTLLDTVELATYTVRTFALHKSGSSEKRELRQFQFMAWPDHGVPEYPTPILAFLRRVKACNPLDAGPMVVHCSAGVGRTGCFIVIDAMLERMKHEKTVDIYGHVTCMRSQRNYMVQTEDQYVFIHEALLEAATCGHTEVPARNLYAHIQKLGQVPPGESVTAMELEFKLLASSKAHTSRFISANLPCNKFKNRLVNIMPYELTRVCLQPIRGVEGSDYINASFLDGYRQQKAYIATQGPLAESTEDFWRMLWEHNSTIIVMLTKLREMGREKCHQYWPAERSARYQYFVVDPMAEYNMPQYILREFKVTDARDGQSRTIRQFQFTDWPEQGVPKTGEGFIDFIGQVHKTKEQFGQDGPITVHCSAGVGRTGVFITLSIVLERMRYEGVVDMFQTVKTLRTQRPAM
tyrosine phosphorylation signal of β-catenin: significant reduction in the tyrosine phosphorylation signal
